How the values were obtained:
[1] = Kinetic parameters of GDH-B and mutant enzymes; assay type: biochemical
Protocol: (§1) GDH-B activity was measured using 0.06 mM 2,6-dichlorophenolindophenol (DCIP) and 0.6 mM phenazine methosulfate (PMS) following 30 min pre-incubation in 10 mM MOPS–NaOH buffer (pH 7.0) containing 1 μM PQQ and 1 mM CaCl2 at room temperature (25 °C). The enzyme activity was determined by measuring the decrease in absorbance of DCIP at 600 nm. For the inhibition assay, the residual activity of 0.7 nM GDH-B for 50 mM D-glucose was measured following 1 h incubation with various concentrations of each peptide. GDH-B activity in the absence of peptide was defined as 100%.

[2] = Substrate specificity of GDH-B mutants; assay type: biochemical; settings: galactose 20 mM; activity against glucose = 100%
Protocol: Figure 3. Substrate specificity of wild-type GDH-B (W.T.), DEE-His, and HI against glucose, lactose, maltose, 3-O-methylglucose (3-O-m glucose), allose, galactose, or 2-deoxyglucose (2DG). Each substrate concentration was 20 mM. The enzymatic activity of each enzyme against glucose was set as 100%.
as §1

[3] = DCIP/PMS assay, 10 mM MOPS–NaOH pH 7.0, 1 μM PQQ, 1 mM CaCl2, 25 °C

B1: DEE-His: GDH-B mutant V453D-Q454E-K455E, 6-His tag fused to the C-terminal, antagonistic template (protein)
chain: DVPLTPSQFAKAKSENFDKKVILSNLNKPHALLWGPDNQIWLTERATGKILRVNPESGSVKTVFQVPEIVNDADGQNGLLGFAFHPDFKNNPYIYISGTFKNPKSTDKELPNQTIIRRYTYNKSTDTLEKPVDLLAGLPSSKDHQSGRLVIGPDQKIYYTIGDQGRNQLAYLFLPNQAQHTPTQQELNGKDYHTYMGKVLRLNLDGSIPKDNPSFNGVVSHIYTLGHRNPQGLAFTPNGKLLQSEQGPNSDDEINLIVKGGNYGWPNVAGYKDDSGYAYANYSAAANKSIKDLAQNGVKVAAGVPVTKESEWTGKNFVPPLKTLYTVQDTYNYNDPTCGEMTYICWPTVAPSSAYVYKGGKKAITGWENTLLVPSLKRGVIFRIKLDPTYSTTYDDAVPMFKSNNRYRDVIASPDGNVLYVLTDTAGNDEEDDGSVTNTLENPGSLIKFTYKAK
modifications: left off: His6, C-terminal, kept
notes: GDH-B mutant V453D-Q454E-K455E, 6-His tag fused to the C-terminal, antagonistic template
[1]; [3]
  Km: 91 mM
  Vmax: 28 U/mg protein
[1]; compared to the wild-type enzyme
  Km compared to wild-type enzyme (in words): increased Km value
[1]; refolded DEE-His, with PQQ
  GDH activity with PQQ (in words): showed GDH activity with PQQ
[2]
  relative activity toward galactose (in words): higher relative activity toward galactose

— PMC3876041, “Screening of Peptide Ligands for Pyrroloquinoline Quinone Glucose Dehydrogenase Using Antagonistic Template-Based Biopanning” (International Journal of Molecular Sciences, 2013)
